Among the data in paper PMC6677171 (2019) are Kd values, retold here.

Where only a bound is given, the exact number is not on record here.

The test addresses Mis16 (S. pombe), full length, affinity tag removed (S. pombe, UniProt O94244 1-430). Put plainly: ITC. (ITC needs no label: the signal is the heat of the interaction.)

Chain of Mis16 (S. pombe), full length, affinity tag removed (O94244 whole entry): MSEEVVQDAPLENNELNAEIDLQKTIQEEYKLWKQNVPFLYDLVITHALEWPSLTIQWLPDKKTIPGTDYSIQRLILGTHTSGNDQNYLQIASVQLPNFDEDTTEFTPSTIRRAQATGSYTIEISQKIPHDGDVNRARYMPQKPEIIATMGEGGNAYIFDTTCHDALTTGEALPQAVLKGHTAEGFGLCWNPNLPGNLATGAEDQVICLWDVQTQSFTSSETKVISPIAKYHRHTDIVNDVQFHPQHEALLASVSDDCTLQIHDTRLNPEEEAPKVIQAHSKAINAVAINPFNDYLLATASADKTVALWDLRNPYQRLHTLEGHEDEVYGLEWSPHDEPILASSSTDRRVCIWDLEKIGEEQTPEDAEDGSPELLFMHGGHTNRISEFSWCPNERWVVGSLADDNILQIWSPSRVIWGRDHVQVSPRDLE

By Kd is commonly meant a measure of binding affinity in units of concentration. A high value points to lower affinity. Regarding LHNRVFLRANVRAVKM [Mis19 C-terminal peptide (residues 97–112) R105A], the Kd is greater than 1000 nM.
